In article PMC3902935:

Tests used:
APOBEC3A (A3A) WT [1] = molecular target: T1, APOBEC3A (A3A) WT (human, UniProt P31941 1-199); test: NMR titration (1H-15N HSQC); 25 mM sodium phosphate pH 6.9, 10 mM DTT, 25 C; Zn2+ enzyme; NMR: 25 mM sodium phosphate pH 6.9, 10 mM DTT, 25 C, 0.074 mM A3A; EMSA: protocol of Byeon et al. (ref 16), buffer not given, 20 nM DNA, 25-100 uM A3A
APOBEC3A (A3A) WT [2] = molecular target: T1, APOBEC3A (A3A) WT; test: EMSA; 20 nM DNA; NMR: 25 mM sodium phosphate pH 6.9, 10 mM DTT, 25 C, 0.074 mM A3A; EMSA: protocol of Byeon et al. (ref 16), buffer not given, 20 nM DNA, 25-100 uM A3A
APOBEC3A Y130F = APOBEC3A Y130F (human, UniProt P31941 1-199, Y130F); test: EMSA; 60 or 80 uM protein; similar to WT; NMR: 25 mM sodium phosphate pH 6.9, 10 mM DTT, 25 C, 0.074 mM A3A; EMSA: protocol of Byeon et al. (ref 16), buffer not given, 20 nM DNA, 25-100 uM A3A
Chain of APOBEC3A Y130F (P31941 whole entry Y130F): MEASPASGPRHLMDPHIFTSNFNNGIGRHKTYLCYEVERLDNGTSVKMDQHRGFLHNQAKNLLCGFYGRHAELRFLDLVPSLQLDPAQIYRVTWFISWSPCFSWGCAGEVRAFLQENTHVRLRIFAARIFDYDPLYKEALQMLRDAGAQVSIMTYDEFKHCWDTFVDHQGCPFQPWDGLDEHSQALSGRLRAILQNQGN

APOBEC3A D131E = APOBEC3A D131E (human, UniProt P31941 1-199, D131E); test: as above
Chain of APOBEC3A D131E (P31941 whole entry D131E): as the sequence (P31941 whole entry Y130F) above, with F130Y, D131E counted along it

APOBEC3A E72Q = APOBEC3A E72Q (human, UniProt P31941 1-199, E72Q); test: as above
Chain of APOBEC3A E72Q (P31941 whole entry E72Q): as the sequence (P31941 whole entry Y130F) above, with E72Q, F130Y counted along it

T1 sequence (P31941 whole entry): as the sequence (P31941 whole entry Y130F) above, with F130Y counted along it

Binder	Kd (APOBEC3A (A3A) WT [1]) [µM]	binding result (APOBEC3A (A3A) WT [2])	binding result (APOBEC3A Y130F)	binding result (APOBEC3A D131E)	binding result (APOBEC3A E72Q)
AUUUCAUUU (ssRNA) [JL1181 9-nt ssRNA]	420 ± 70				
JL986 60-nt ssDNA (ssDNA) DNA: ATTATTATTATTATTATTATTATTATTATTATTTCATTTATTTATTTATTTATTTATTTA		binds			
JL988 80-nt ssDNA (ssDNA) DNA: ATTATTATTATTATTATTATTATTATTATTATTATTATTATTATTTCATTTATTTATTTATTTATTTATTTATTTATTTA		binds	binds	binds	binds
JL987 70-nt ssDNA (ssDNA) DNA: ATTATTATTATTATTATTATTATTATTATTATTATTATTTCATTTATTTATTTATTTATTTATTTATTTA		binds			
